# B1: 2G12 Fab, Alexa 488- or Alexa 568-labelled (Fab, V domains shown)
# VH: EVQLVESGGGLVKAGGSLILSCGVSNFRISAHTMNWVRRVPGGGLEWVASISTSSTYRDYADAVKGRFTVSRDDLEDFVYLQMHKMRVEDTAIYYCARKGSDRLSDNDPFDAWGPGTVVTVSP
# VL: DVVMTQSPSTLSASVGDTITITCRASQSIETWLAWYQQKPGKAPKLLIYKASTLKTGVPSRFSGSGSGTEFTLTISGLQFDDFATYHCQHYAGYSATFGQGTRVEIK
# Molecular target: T1, HIV-1 JRFL envelope (Env, gp120-gp41) on HIV-1 JRFL pseudovirions (HIV-1 JR-FL, UniProt Q75760, strain)
# T1 construct: also called HIV-1 JRFL virions; tier-2 JRFL pseudovirus; copies: 3 + 3
# Experiment: FRET or BRET + other: fluorescence correlation spectroscopy (FRET-FCS); all reactants in solution; donor (Alexa 488) and acceptor (Alexa 568) labelled Fabs with virions at 10 μg/ml (about 1.5 virions in the 1 fL focal volume); FRET bursts and diffusion coefficient of the acceptor channel (6 μm^2/s for virion-bound Fab)
# Details: one partner purified
binder,measurement,value
B1,binding result,binds

# — paper PMC6628914 (Frontiers in Immunology, 2019)
